# Like-named read-outs stand apart in the source and are kept apart here.
# Tests used:
# [1] = biological target: calf bulk histone; experiment: SPR; Biacore; 10 μg/ml calf bulk histone in 50 mM sodium acetate pH 5.0 coated onto a CM5 chip; enzyme injected at different concentrations; room temperature; non-linear binding kinetics, ranges estimated
# [2] = biological target: calf bulk histone; experiment: as above; remark: listed apart in the source
# [3] = biological target: histone H3 peptide pH3K4(me2) N-terminal tail peptide (Homo sapiens) (UniProt P68431); details: cited from earlier work
# [4] = biological target: histone H3 peptide (pH3) N-terminal tail peptide (Homo sapiens) (UniProt P68431); experiment: fluorescence polarization; details: cited from earlier work
# [5] = biological target: histone H3 peptide pH3R2me2a N-terminal tail peptide (Homo sapiens) (UniProt P68431); experiment: fluorescence polarization; details: cited from earlier work
# Sequence of c-JMJD5 catalytic core (Q8N371 183-416): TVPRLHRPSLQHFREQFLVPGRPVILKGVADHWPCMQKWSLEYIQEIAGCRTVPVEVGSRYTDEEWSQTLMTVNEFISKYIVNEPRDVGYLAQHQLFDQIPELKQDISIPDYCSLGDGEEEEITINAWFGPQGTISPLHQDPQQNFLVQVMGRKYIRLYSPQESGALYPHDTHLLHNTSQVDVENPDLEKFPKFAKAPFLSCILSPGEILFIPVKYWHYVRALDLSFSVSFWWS
# Sequence of JMJD7 (mouse), JMJD7 protein alone generated from GST-JMJD7 fusion protein (P0C872 whole entry, the tested form may be a part): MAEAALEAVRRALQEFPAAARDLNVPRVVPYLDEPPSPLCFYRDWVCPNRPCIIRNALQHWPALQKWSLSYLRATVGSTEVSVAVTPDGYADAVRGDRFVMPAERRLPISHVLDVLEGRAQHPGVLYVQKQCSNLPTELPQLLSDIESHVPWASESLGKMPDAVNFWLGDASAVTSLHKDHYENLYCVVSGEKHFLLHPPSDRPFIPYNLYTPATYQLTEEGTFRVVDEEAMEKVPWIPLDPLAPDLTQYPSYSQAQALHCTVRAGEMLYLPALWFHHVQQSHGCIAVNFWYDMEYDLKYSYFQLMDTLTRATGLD
# Sequence of c-JMJD5 (JMJD5 residues 183–416, lacking the N-terminal domain) (Q8N371 183-416): as the sequence (Q8N371 183-416) above
Kd [1] [µM],Kd [2] [µM],Substance,Kd [3] [µM],Kd [4] [µM],Kd [5] [µM]
1 to 50,1 to 10,"JMJD7 (mouse), JMJD7 protein alone generated from GST-JMJD7 fusion protein (from UniProt P0C872 1-316) (enzyme)",,,
,,c-JMJD5 catalytic core (from UniProt Q8N371),4,7,0.112
1 to 50,1 to 10,"c-JMJD5 (JMJD5 residues 183–416, lacking the N-terminal domain) (from UniProt Q8N371 183-416) (domain or fragment)",,,

# Reference: paper PMC5818494, “Specific Recognition of Arginine Methylated Histone Tails by JMJD5 and JMJD7” (Scientific Reports, 2018)
